In article PMC4166567:

Key:
[1] = molecular target: adenylyl cyclase 5/6 (AC5/6), endogenous in HEK-293 cells (human (endogenous in HEK-293)) (UniProt O95622); assay: co-IP
[2] = molecular target: caveolin-1 (Cav-1), endogenous in human renal proximal tubule (hRPT) cells (human (endogenous in hRPT cells)) (UniProt Q03135); assay: co-IP
Chain of UniProt Q03135 (Q03135 whole entry): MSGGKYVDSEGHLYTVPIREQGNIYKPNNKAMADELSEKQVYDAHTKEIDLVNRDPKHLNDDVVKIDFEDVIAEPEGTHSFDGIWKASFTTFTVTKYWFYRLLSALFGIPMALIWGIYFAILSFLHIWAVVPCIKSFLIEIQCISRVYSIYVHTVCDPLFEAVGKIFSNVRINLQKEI

Row | Substance | density of the co-immunoprecipitated band (DU), cells with fenoldopam [1] | density of the co-immunoprecipitated band (DU), cells with fenoldopam [2] | density of the co-immunoprecipitated band (DU), control cells [2]
1 | human dopamine D5 receptor, V5-tagged, heterologously expressed in HEK-293 cells (HEK-hD5R) (from UniProt P21918 1-477) | 76.2 DU |  | 
2 | adenylyl cyclase 5/6 (AC5/6), endogenous in human renal proximal tubule (hRPT) cells (from UniProt O95622 1-1261) (enzyme) |  | 148 DU | 70.3 DU
3 | human dopamine D1 receptor, Myc-tagged, heterologously expressed in HEK-293 cells (HEK-hD1R) (from UniProt P21728 1-446) | 41.9 DU |  | 
